pKd: −log10 of the molar value.
System: pTERF1 (Clostridia bacterium (ruminant gut metagenome))
Test: BLI
Conditions: BLI: PBS, 0.02% Tween, pH 7.4, 25 C, 1:1 global fit; EMSA: 40 nM probe, room temperature 30 min, 6% native PAGE, buffer not stated

pTERF1 motif probe was tested, and the pKd was 8.73.

From article PMC11417379
